Where two headings read alike, the source gives them in different places.
Columns and labels:
CD19 [1] = biological target: CD19 (UniProt P15391); assay: cell-based or functional assay
CD19 [2] = biological target: CD19 (UniProt P15391); assay: cell-based or functional assay; remark: listed apart in the source

| Molecule | Average MFI Difference (MFI of ON - MFI of OFF) (BFP reporter; no CAR stimulation) (CD19 [1]) [MFI] | Average MFI Difference (MFI of ON - MFI of OFF) (BFP reporter; with CAR stimulation by ALPPL2+ K562) (CD19 [1]) [MFI] | Average Signal To Noise (BFP reporter MFI, CD19+ K562 vs K562; no CAR stimulation) (CD19 [1]) | Average Signal To Noise (BFP reporter MFI, CD19+ K562 vs K562; with CAR stimulation by ALPPL2+ K562) (CD19 [1]) | Average MFI Difference (MFI of ON - MFI of OFF) (BFP reporter; no CAR stimulation) (CD19 [2]) [MFI] | Average MFI Difference (MFI of ON - MFI of OFF) (BFP reporter; with CAR stimulation by ALPPL2+ K562) (CD19 [2]) [MFI] | Average Signal To Noise (BFP reporter MFI, CD19+ K562 vs K562; no CAR stimulation) (CD19 [2]) | Average Signal To Noise (BFP reporter MFI, CD19+ K562 vs K562; with CAR stimulation by ALPPL2+ K562) (CD19 [2]) |
| --- | --- | --- | --- | --- | --- | --- | --- | --- |
| hingeNotch STS variant with AGER STS (RRQRR) (receptor) | 1130 | 1790 | 11.9 | 106 |  |  |  |  |
| hingeNotch STS variant with CDH2 STS (…) (receptor) | 1130 | 2830 | 2.26 | 4.24 |  |  |  |  |
| hingeNotch STS variant with CSF1R STS (KYKQKPK) (receptor) | 801 | 1510 | 3.09 | 5.45 |  |  |  |  |
| hingeNotch STS variant with CXCL16 STS (KRRR) (receptor) | 1290 | 1690 | 14.4 | 27.9 |  |  |  |  |
| hingeNotch STS variant with DAG1 STS (RKKRKGK) (receptor) | 2520 | 4640 | 2.82 | 7.4 |  |  |  |  |
| hingeNotch STS variant with EPCAM STS (…) (receptor) | 864 | 2370 | 1.64 | 2.48 |  |  |  |  |
| hingeNotch STS variant with GHR STS (KQQRIK) (receptor) | 141 | -51.5 | 2.22 | 2.67 |  |  |  |  |
| hingeNotch STS variant with Jag2 STS (…) (receptor) | 1320 | 3320 | 5.09 | 21.4 |  |  |  |  |
| hingeNotch STS variant with KCNE3 STS (RSRKVDKR) (receptor) | 976 | 1900 | 9.78 | 62.5 |  |  |  |  |
| hingeNotch STS variant with KL STS (KKGRRSYK) (receptor) | 880 | 1570 | 3.72 | 6.53 |  |  |  |  |
| hingeNotch STS variant with LRP1B STS (…) (receptor) | 1010 | 2560 | 2.32 | 10.3 |  |  |  |  |
| hingeNotch STS variant with NRG1 STS (…) (receptor) | 806 | 637 | 9.42 | 25 |  |  |  |  |
| hingeNotch STS variant with Notch 2 STS (KRKRKH) (receptor) | 1260 | 4190 | 5.24 | 15.5 |  |  |  |  |
| hingeNotch STS variant with Notch 4 STS (RRRREH) (receptor) | 1020 | 1480 | 10.3 | 24.1 |  |  |  |  |
| hingeNotch STS variant with PTPRF STS (KRKRTH) (receptor) | 1180 | 2570 | 10.5 | 50.8 |  |  |  |  |
| RRKREH (receptor, part only) [hingeNotch STS variant with Notch3 STS (RRKREH)] |  |  |  |  | 1190 | 1990 | 12.8 | 29.2 |
| KTKKQRKQMHNHLR (receptor, part only) [hingeNotch STS variant with NRG2 STS (…)] |  |  |  |  | 1260 | 2200 | 8.32 | 15.8 |
| HPLRKRRKRKKK (receptor, part only) [hingeNotch STS variant with BTC STS (…)] |  |  |  |  | 480 | 423 | 1.23 | 1.71 |
| RRRSKYSKAK (receptor, part only) [hingeNotch STS variant with EPHA3 STS (…)] |  |  |  |  | 1290 | 2270 | 2.97 | 6.31 |
| HRRCKHRTGK (receptor, part only) [hingeNotch STS variant with IL1R2 STS (…)] |  |  |  |  | 980 | 2030 | 2.41 | 4.78 |

From patent publication US20220133797A1
